Data published in the supplement of paper PMC7125110.
± gives the standard error. For some of these results: Variants at the floor of the assay were thinned out.

B1: glmS ribozyme (parent)
chain: AUAAAAGCGCCAGAACUACAGAAAUGUAGUUGACGAGGAGGAGGUUUAUCGAAUUUUCGGCGGAUGCCUCCAAA

Legend:
Details in all cases: with glucosamine-6-phosphate
glucosamine-6-phosphate [1] = variants of: B1; experiment: kcat; higher = faster cleavage; RNA array
Outline: (§1)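 Barcoded ribozyme variants, transcribed in situ by E. coli RNA polymerase on sequenced MiSeq chips, were followed via a hybridised Cy3 probe at 37 °C. Glucosamine-6-phosphate ranged from 40 μM to 10 mM in HEPES/KCl/Mg(OAc)2 buffer. kobs came from decay fits to per-tile medians, and kcat and KM from weighted Michaelis–Menten fits.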

glucosamine-6-phosphate [2] = variants of: B1; experiment: KM; higher = weaker cofactor use; RNA array
Outline: as §1

glucosamine-6-phosphate [3] = variants of: B1; experiment: self-cleavage kobs at 40 uM GlcN6P; higher = faster cleavage; RNA array
Outline: as §1

glucosamine-6-phosphate [4] = variants of: B1; experiment: self-cleavage kobs at 160 uM GlcN6P; higher = faster cleavage; RNA array
Outline: as §1

glucosamine-6-phosphate [5] = variants of: B1; experiment: self-cleavage kobs at 640 uM GlcN6P; higher = faster cleavage; RNA array
Outline: as §1

glucosamine-6-phosphate [6] = variants of: B1; experiment: self-cleavage kobs at 2500 uM GlcN6P; higher = faster cleavage; RNA array
Outline: as §1

glucosamine-6-phosphate [7] = variants of: B1; experiment: self-cleavage kobs at 10000 uM GlcN6P; higher = faster cleavage; RNA array
Outline: as §1

| Variant | kcat (glucosamine-6-phosphate [1]) [s⁻¹] | KM (glucosamine-6-phosphate [2]) [µM] | self-cleavage kobs at 40 uM GlcN6P (glucosamine-6-phosphate [3]) [s⁻¹] | self-cleavage kobs at 160 uM GlcN6P (glucosamine-6-phosphate [4]) [s⁻¹] | self-cleavage kobs at 640 uM GlcN6P (glucosamine-6-phosphate [5]) [s⁻¹] | self-cleavage kobs at 2500 uM GlcN6P (glucosamine-6-phosphate [6]) [s⁻¹] | self-cleavage kobs at 10000 uM GlcN6P (glucosamine-6-phosphate [7]) [s⁻¹] |
| --- | --- | --- | --- | --- | --- | --- | --- |
| A15U A39U | 0.00466 ± 0.00041 | 2280 ± 280 | 8.33e-05 ± 9.7e-06 | 0.000251 ± 5.5e-05 | 0.0011 ± 0.00013 | 0.00233 ± 0.00043 | 0.0038 ± 0.0004 |
| A15U A39G | 0.00892 ± 0.0027 | 1830 ± 730 | 0.000203 ± 3.1e-05 | 0.000706 ± 0.00028 | 0.0023 ± 0.00069 |  | 0.00943 ± 0.0017 |
| A15U C16G G59C G60A C67U | < 1e-05 |  |  |  |  |  |  |
| A15C G41C | 3.33e-05 ± 2.9e-06 | 1850 ± 570 |  |  |  |  | 2.79e-05 ± 1.2e-05 |
| A15G U47G | 0.00418 ± 0.0015 |  | 0.000326 ± 5.4e-05 | 0.000812 ± 0.00016 | 0.00171 ± 0.00031 | 0.00298 ± 0.00072 | 0.00738 ± 0.0014 |
| A15C U45C | 0.000613 ± 8.6e-05 | 5480 ± 1200 |  |  | 6.81e-05 ± 1.6e-05 | 0.000176 ± 3.7e-05 | 0.000409 ± 7.5e-05 |
| A15G G29C U31C A39U | 0.000143 ± 2.1e-06 | 4650 ± 160 |  |  |  | 5.02e-05 ± 1.3e-05 | 9.79e-05 ± 1.4e-05 |
| A15U A64U | 1.4e-05 ± 4.2e-06 |  | < 1e-05 | < 1e-05 |  |  |  |
| A15G C50U | 9.75e-05 ± 1.3e-05 | 2370 ± 1000 |  |  |  | 4.52e-05 ± 1.3e-05 | 8.01e-05 ± 1.2e-05 |
| A15C G43A | < 1e-05 |  | < 1e-05 | < 1e-05 | < 1e-05 |  |  |
| A15G C70G | 0.000355 ± 6.5e-05 | 180 ± 79 | 8.28e-05 ± 1.3e-05 | 0.000137 ± 1.9e-05 | 0.000303 ± 2.7e-05 |  | 0.00033 ± 5.4e-05 |
| A15G U69G | 7.83e-05 ± 1.2e-05 |  | 3.29e-05 ± 1.2e-05 | 5.34e-05 ± 2.7e-05 | 6.2e-05 ± 1.2e-05 | 0.00012 ± 1.7e-05 | 7.05e-05 ± 9.2e-06 |
| A15C C61U | < 1e-05 |  | < 1e-05 | < 1e-05 | < 1e-05 |  |  |
| A15G U65G | 0.0045 ± 0.0017 | 4200 ± 2000 | 4.05e-05 ± 1e-05 | 0.000133 ± 3.7e-05 | 0.000664 ± 0.00013 | 0.00285 ± 0.0006 | 0.00279 ± 0.00062 |
| A15C C16U | 0.00405 ± 0.00069 | 3220 ± 830 | 4.37e-05 ± 7.4e-06 | 0.000159 ± 4.5e-05 | 0.000777 ± 0.0001 | 0.00235 ± 0.00038 | 0.0029 ± 0.0003 |
| A15G U47G U55A | 0.0098 ± 0.003 | 1860 ± 850 | 0.000187 ± 5.9e-05 |  | 0.00364 ± 0.0011 | 0.00474 ± 0.0016 | 0.00887 ± 0.003 |
| A15C U54C | 0.00621 ± 0.0013 | 1740 ± 510 | 0.000176 ± 2.3e-05 | 0.000481 ± 8.7e-05 | 0.00131 ± 0.00024 | 0.00384 ± 0.00078 | 0.00556 ± 0.00077 |
| A15C C58U | 3.18e-05 ± 2.2e-06 | 214 ± 97 |  |  |  | 2.9e-05 ± 1.1e-05 |  |
| A15G A42C | 1.26e-05 ± 4.1e-06 |  |  | < 1e-05 |  |  |  |
| A15G C16U C68G | 5.74e-05 ± 2.6e-05 |  |  |  | 8.06e-05 ± 1.8e-05 | 8.91e-05 ± 3e-05 |  |
| A15G U54C | 0.0142 ± 0.0059 |  | 0.000969 ± 0.00018 | 0.0021 ± 0.00098 |  |  | 0.0181 ± 0.0046 |
| A15G U55C | 0.0256 ± 0.0046 | 1870 ± 410 | 0.000564 ± 7.9e-05 | 0.00212 ± 0.00033 | 0.0055 ± 0.0011 | 0.0125 ± 0.005 | 0.0242 ± 0.0051 |
| A15G G44U | 0.00046 ± 2.8e-05 | 1550 ± 270 |  | 3.52e-05 ± 1.5e-05 | 0.000151 ± 2.5e-05 | 0.000252 ± 6.3e-05 | 0.0004 ± 3.1e-05 |
| A15G G44A | 0.000572 ± 0.00011 | 2050 ± 620 |  | 2.81e-05 ± 1.2e-05 | 0.000152 ± 2.1e-05 | 0.000327 ± 5.5e-05 | 0.00044 ± 9.5e-05 |
| A15G A39G | 0.024 ± 0.0095 |  | 0.0013 ± 0.00018 | 0.00251 ± 0.00078 | 0.0174 ± 0.0035 | 0.037 ± 0.017 | 0.0199 ± 0.0048 |
| A15G G32U | 0.00117 ± 2.6e-05 | 2990 ± 100 |  | 6.02e-05 ± 1.1e-05 | 0.000208 ± 2.6e-05 | 0.000525 ± 5.2e-05 | 0.000917 ± 0.00013 |
| A15G G41C | 0.000647 ± 4.6e-05 | 2170 ± 310 |  | 4.44e-05 ± 1.5e-05 | 0.000149 ± 2.7e-05 | 0.00032 ± 5.7e-05 | 0.000544 ± 6.2e-05 |
| A15G U46C | 0.00378 ± 0.0014 | 1440 ± 680 | 0.000112 ± 2.9e-05 | 0.000465 ± 0.00016 | 0.000897 ± 0.00029 |  | 0.00388 ± 0.0013 |
| A15C U57A | 7.96e-05 ± 6.3e-06 | 2770 ± 750 |  |  |  | 3.94e-05 ± 1.2e-05 | 6.22e-05 ± 8.8e-06 |
| A15U A33U | 5.77e-05 ± 6.8e-06 |  |  |  |  | 5.26e-05 ± 1e-05 | 5.13e-05 ± 7.3e-06 |
